Assay results as given in patent US20190352343A1 (AUCKLAND UNISERVICES, published 2019).

T1: Mol8 (Mobiluncus mulieris)
T1 construct: also called Mol8 construct
T1 chain: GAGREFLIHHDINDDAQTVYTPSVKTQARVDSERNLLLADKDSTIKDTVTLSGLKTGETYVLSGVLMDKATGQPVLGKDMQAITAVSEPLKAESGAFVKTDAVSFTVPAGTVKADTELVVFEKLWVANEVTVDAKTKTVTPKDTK

T2: Mol9 (Mobiluncus mulieris)
T2 construct: also called Mol9 construct
T2 chain: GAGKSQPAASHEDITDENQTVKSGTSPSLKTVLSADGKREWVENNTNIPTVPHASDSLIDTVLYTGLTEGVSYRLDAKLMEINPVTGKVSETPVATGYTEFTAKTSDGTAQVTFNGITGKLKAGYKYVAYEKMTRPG

B1: Mol10 (other)
chain: GAPDKPVPPPHEDPKDPNQTVVSEHNPGITTTLTDAQAAKGTDGKVISLTRDAQLKDVVRVTQTGLIEGAKYHVFSKLVNQANPDQVVSAGMQEFTATGDQLRSVTVKFTVPKETLQELAGSDPSAEFKLVAYEYLALDSDTDIVNKEATSEIEAVGFK
notes: also called Mol10 construct
B2: Mol11 (other)
chain: GAGKTWAATHADPNDAGQTVTVVKAPKIGTTLKYGQSKTVWVADKVELTDTVEYFNLQPKTKYTLSGNLMGGTSAESLSDTGVKATTEFTTPAAANGAQTVSGTAVVKFTVPREVLERNEKLVAYEYLTIDGNPVASHEDPKDENQTVTSKKP
notes: also called Mol11 domain construct

How the values were obtained:
Mol8 = target: T1, Mol8; test: SDS-PAGE of mixed Mol domains, ester bond ligation
Mol9 = target: T2, Mol9; test: SDS-PAGE of mixed Mol domains, ester bond ligation

Binder | binding result (Mol8) | binding result (Mol9)
B1 | no binding (tested: equimolar amounts, 24 h) | –
B2 | no binding (tested: equimolar amounts, 24 h) | no binding (tested: equimolar amounts, 24 h)
